Measured values published in patent US20060257938A1, “Method of screening for drugs that block ligand binding to a lipid binding protein” (priority 2005, published 2006).

What was measured:
Format in all cases: binding
[1] = Probe fluorescence ratio response to arachidonic acid relative to ADIFAB2; conditions: arachidonic acid; response relative to ADIFAB2
Summary of the method: (§1)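 Each fatty acid's response was expressed relative to ADIFAB2, the rI-FABP-L72A probe, as ΔR/ΔRreference. ΔR is the change in the background-corrected two-wavelength intensity ratio R=Fλ1/Fλ2 from its analyte-free baseline R0. Emission was read near about 420-480 nm for unbound and about 495-580 nm for FFA-bound probe.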

[2] = Probe fluorescence ratio response to oleic acid relative to ADIFAB2; conditions: response relative to ADIFAB2
Summary of the method: as §1

[3] = Probe fluorescence ratio response to palmitic acid relative to ADIFAB2; conditions: response relative to ADIFAB2
Summary of the method: as §1

[4] = Probe fluorescence ratio response to palmitoleic acid relative to ADIFAB2; conditions: response relative to ADIFAB2
Description: (§2) In an alternate preferred embodiment, the protein is rI-FABP that has Ala substituted for Leu at position 72 (rI-FABP-L72A) with the resulting probe named ADIFAB2. […] Other probes useful in embodiments of the invention are shown in Tables 1-6 and are also described in U.S. application Ser. No. 11/085,792, filed Mar. 21, 2005 which is incorporated herein by reference. The indicated substitutions are with reference to the ADIFAB protein of SEQ ID NO: 2.
(§3) ADIFAB2 also has an altered spectral response, making it especially useful for measurements of FFAu in blood samples (Apple et al, Clinical Proteomics, (2004) 1:41-44, U.S. patent application Ser. No. 10/670,958). The wavelengths at the maximum intensities emitted by these fluorescently-labeled I-FABP's in the absence of FFA is about 420 to 480 nm. The emission wavelengths at the maximum intensities emitted by these fluorescently-labeled I-FABP's with FFA bound are between about 495 to 580 nm. Experiments typically involve measuring the fluorescence response within both emission maxima or at wavelengths for which the effect of interfering molecules such as hemoglobin can be eliminated as described in U.S. application Ser. No. 10/670958 and PCT/US2004/030521 and the calculation of the ratio ‘R’ of the two fluorescence intensities. The baseline value for this ratio, measured in the absence of analyte, is designated R0.
(§4) The intensity ratio (“R” value) is determined as follows. The ratio is calculated using the following formula: R=Fλ1/Fλ2 wherein, Fλ1 is the measured fluorescence intensities (intensity of sample with probe present minus intensity of sample without probe present) at wavelength 1 and Fλ2 is the measured fluorescence intensities (intensity of sample with probe present minus intensity of sample without probe present) at wavelength 2. Then, for a given probe, ΔR, the difference in R value between the measurement in the presence of the test compound (agent) and in the absence of the test compound (agent), is calculated as follows: ΔR=R+agent−R0 In some embodiments, the ΔR value may then be compared to some reference, for example, an agent with a known affinity for a given probe, by ΔR/ΔRreference. Measurements of fluorescence intensities are obtained using standard techniques.

[5] = Probe fluorescence ratio response to linolenic acid relative to ADIFAB2; conditions: response relative to ADIFAB2
Summary of the method: as §1

[6] = Probe fluorescence ratio response to stearic acid relative to ADIFAB2; conditions: response relative to ADIFAB2
Description: as §2, §3, §4

[7] = Probe fluorescence ratio response to linoleic acid relative to ADIFAB2; conditions: response relative to ADIFAB2
Summary of the method: as §1

Molecule | DR/DR AA [1] | DR/DR OA [2] | DR/DR PA [3] | DR/DR POA [4] | DR/DR LNA [5] | DR/DR SA [6] | DR/DR LA [7]
72A 73W 74E (protein, listed as Rattus norvegicus, PEPTIDE (1)...(131) wild-type rat intestinal fatty acid binding protein) AFDGTWKVDRNENYEKFMEKMGINVVKRKLGAHDNLKLTITQEGNKFTVKESSNFRNIDVVFELGVDFAYSAWEGTELTGTWTMEGNKLVGKFKRVDNGKELIAVREISGNELIQTYTYEGVEAKRIFKKE | 4.093 | 3.277 | 4.937 | 6.615 | 5.422 | 1.289 | 4.686
72T 74V (protein, listed as Rattus norvegicus, PEPTIDE (1)...(131) wild-type rat intestinal fatty acid binding protein) AFDGTWKVDRNENYEKFMEKMGINVVKRKLGAHDNLKLTITQEGNKFTVKESSNFRNIDVVFELGVDFAYSTAVGTELTGTWTMEGNKLVGKFKRVDNGKELIAVREISGNELIQTYTYEGVEAKRIFKKE | 2.680 | 2.957 | 3.149 | 4.074 | 3.680 | 1.781 | 3.630
72S 73W 74S (protein, listed as Rattus norvegicus, PEPTIDE (1)...(131) wild-type rat intestinal fatty acid binding protein) AFDGTWKVDRNENYEKFMEKMGINVVKRKLGAHDNLKLTITQEGNKFTVKESSNFRNIDVVFELGVDFAYSSWSGTELTGTWTMEGNKLVGKFKRVDNGKELIAVREISGNELIQTYTYEGVEAKRIFKKE | 3.545 | 2.863 | 3.536 | 4.656 | 4.147 | 1.106 | 3.787
72T 73W 74S (protein, listed as Rattus norvegicus, PEPTIDE (1)...(131) wild-type rat intestinal fatty acid binding protein) AFDGTWKVDRNENYEKFMEKMGINVVKRKLGAHDNLKLTITQEGNKFTVKESSNFRNIDVVFELGVDFAYSTWSGTELTGTWTMEGNKLVGKFKRVDNGKELIAVREISGNELIQTYTYEGVEAKRIFKKE | 4.129 | 4.177 | 4.155 | 5.826 | 4.826 | 1.620 | 4.612
72S 73W 74N (protein, listed as Rattus norvegicus, PEPTIDE (1)...(131) wild-type rat intestinal fatty acid binding protein) AFDGTWKVDRNENYEKFMEKMGINVVKRKLGAHDNLKLTITQEGNKFTVKESSNFRNIDVVFELGVDFAYSSWNGTELTGTWTMEGNKLVGKFKRVDNGKELIAVREISGNELIQTYTYEGVEAKRIFKKE | 3.770 | 3.490 | 3.333 | 4.867 | 4.220 | 1.255 | 3.977
72S 73W 74E (protein, listed as Rattus norvegicus, PEPTIDE (1)...(131) wild-type rat intestinal fatty acid binding protein) AFDGTWKVDRNENYEKFMEKMGINVVKRKLGAHDNLKLTITQEGNKFTVKESSNFRNIDVVFELGVDFAYSSWEGTELTGTWTMEGNKLVGKFKRVDNGKELIAVREISGNELIQTYTYEGVEAKRIFKKE | 3.751 | 3.212 | 4.210 | 6.109 | 4.799 | 1.285 | 4.079
72T 73W 74E (protein, listed as Rattus norvegicus, PEPTIDE (1)...(131) wild-type rat intestinal fatty acid binding protein) AFDGTWKVDRNENYEKFMEKMGINVVKRKLGAHDNLKLTITQEGNKFTVKESSNFRNIDVVFELGVDFAYSTWEGTELTGTWTMEGNKLVGKFKRVDNGKELIAVREISGNELIQTYTYEGVEAKRIFKKE | 2.442 | 2.200 | 3.842 | 5.353 | 3.818 | 0.877 | 3.254
72T 73V 74L (protein, listed as Rattus norvegicus, PEPTIDE (1)...(131) wild-type rat intestinal fatty acid binding protein) AFDGTWKVDRNENYEKFMEKMGINVVKRKLGAHDNLKLTITQEGNKFTVKESSNFRNIDVVFELGVDFAYSTVLGTELTGTWTMEGNKLVGKFKRVDNGKELIAVREISGNELIQTYTYEGVEAKRIFKKE | 2.774 | 2.832 | 2.674 | 3.642 | 3.508 | 1.411 | 3.165
73W 72A 74F (protein, listed as Rattus norvegicus, PEPTIDE (1)...(131) wild-type rat intestinal fatty acid binding protein) AFDGTWKVDRNENYEKFMEKMGINVVKRKLGAHDNLKLTITQEGNKFTVKESSNFRNIDVVFELGVDFAYSAWFGTELTGTWTMEGNKLVGKFKRVDNGKELIAVREISGNELIQTYTYEGVEAKRIFKKE | 3.378 | 3.255 | 3.264 | 5.256 | 3.875 | 1.485 | 3.718
72A 73W 74S (protein, listed as Rattus norvegicus, PEPTIDE (1)...(131) wild-type rat intestinal fatty acid binding protein) AFDGTWKVDRNENYEKFMEKMGINVVKRKLGAHDNLKLTITQEGNKFTVKESSNFRNIDVVFELGVDFAYSAWSGTELTGTWTMEGNKLVGKFKRVDNGKELIAVREISGNELIQTYTYEGVEAKRIFKKE | 3.211 | 3.155 | 4.039 | 4.864 | 4.401 | 1.095 | 3.806
72T 73V 74V (protein, listed as Rattus norvegicus, PEPTIDE (1)...(131) wild-type rat intestinal fatty acid binding protein) AFDGTWKVDRNENYEKFMEKMGINVVKRKLGAHDNLKLTITQEGNKFTVKESSNFRNIDVVFELGVDFAYSTVVGTELTGTWTMEGNKLVGKFKRVDNGKELIAVREISGNELIQTYTYEGVEAKRIFKKE | 3.237 | 3.166 | 2.987 | 4.015 | 3.618 | 1.918 | 3.502
21F 78V 102V 72A (protein, listed as Rattus norvegicus, PEPTIDE (1)...(131) wild-type rat intestinal fatty acid binding protein) AFDGTWKVDRNENYEKFMEKFGINVVKRKLGAHDNLKLTITQEGNKFTVKESSNFRNIDVVFELGVDFAYSAADGTEVTGTWTMEGNKLVGKFKRVDNGKEVIAVREISGNELIQTYTYEGVEAKRIFKKE | 4.511 | 4.223 | 2.756 | 3.365 | 3.775 | 3.120 | 4.204
72G 73W (protein, listed as Rattus norvegicus, PEPTIDE (1)...(131) wild-type rat intestinal fatty acid binding protein) AFDGTWKVDRNENYEKFMEKMGINVVKRKLGAHDNLKLTITQEGNKFTVKESSNFRNIDVVFELGVDFAYSGWDGTELTGTWTMEGNKLVGKFKRVDNGKELIAVREISGNELIQTYTYEGVEAKRIFKKE | 2.260 | 1.106 | 2.968 | 4.082 | 3.637 | 0.294 | 2.698
